Numbering of substitutions follows the chain as printed.
T1: SNAP25 Peptide 2 (PEP2) (Homo sapiens, UniProt P60880 SEQ:1-37)
T1 chain: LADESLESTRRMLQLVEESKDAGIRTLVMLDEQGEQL

T2: SNAP25 Peptide 1 (PEP1) (Homo sapiens, UniProt P60880 SEQ:1-35)
T2 chain: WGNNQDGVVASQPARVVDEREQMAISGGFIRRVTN

B1: PEP 2.12 (ssDNA)
DNA: TTTTTAACACGACTAGACTGTGTATCCCACAGGGCAATGTGGTCGTGCCATG
modifications: W indole, X amine, Y phenol modified dU [14,19,23,25,38,40,43,46]
B2: PEP 4.21 (ssDNA)
DNA: TTTTTAAGCCCACGGGGCTGTGAGCAACGAACATTGGCACAGTCGTGCCATG
B3: PEP 4.20 (ssDNA)
DNA: TTTTTAAGCCCACACGTGTTCGGATCGCACAGTTATTGGCAGTCGTGCCATG
B4: PEP 2.10 (ssDNA)
DNA: TTTTTAAGCCCACTGGCCTGTGGTCAGCGAACTGTGCGCTGGTGGGCCCATG
modifications: W indole, X amine, Y phenol modified dU [14,19,24,35,40]
B5: PEP 4.06 (ssDNA)
DNA: TTTTTAAGCCCACGAGAGTTCGATAGTCACAGATTGGCACCGTCGTGCCATG
B6: PEP 1.21 (ssDNA)
DNA: TTTTTAAGCCCACCGGTCTGTGGTTCCCACAGTGCATGCGAGTGGGCCCATG
modifications: W indole, X amine, Y phenol modified dU [17,19,24,25]
B7: PEP 4.08 (ssDNA)
DNA: TTTTTAACACGACCATTCTGTGCCAGCCGAACTCCGTGCTGGTGGGCCCATG
B8: PEP 2.09 (ssDNA)
DNA: TTTTTAACACGACATAGGTTCGCTGGTCACAGAATGTTGTGGTGGGCCCATG
modifications: W indole, X amine, Y phenol modified dU [15,19,20,24,27,35,38,40]
B9: PEP 4.17 (ssDNA)
DNA: TTTTTAAGCCCACGCCAGTTCGGTCAACGAACTACGGTGATGTGGGCCCATG
B10: PEP 1.24 (ssDNA)
DNA: TTTTTAACACGACCGCCCTGTGGGCAACACAGGGATCTGCAGTCGTGCCATG
modifications: W indole, X amine, Y phenol modified dU [19,36,38,43,46]
B11: PEP 4.12 (ssDNA)
DNA: TTTTTAACACGACAGCCCTGTGCAGGCCGAACGGCGTTGATGTCGTGCCATG
B12: PEP 4.05 (ssDNA)
DNA: TTTTTAAGCCCACATAAGTTCGCAAGTCACAGCGATGTGATGTCGTGCCATG
B13: PEP 4.16 (ssDNA)
DNA: TTTTTAACACGACAGACCTGTGATGGTCGAACTCCATGCATGTGGGCCCATG
B14: PEP 2.11 (ssDNA)
DNA: TTTTTAAGCCCACTTGGCTGTGCACATCACAGAACAAGCAGGTGGGCCCATG
modifications: W indole, X amine, Y phenol modified dU [14,15,19,27]
B15: PEP 4.14 (ssDNA)
DNA: TTTTTAAGCCCACAAAAGTTCGGGCAGCACAGGTCGCTGAGGTCGTGCCATG
B16: PEP 1.20 (ssDNA)
DNA: TTTTTAACACGACGAACCTGTGCTCAACACAGAACATCACAGTGGGCCCATG
modifications: W indole, X amine, Y phenol modified dU [19,24]
B17: PEP 2.13 (ssDNA)
DNA: TTTTTAAGCCCACATGCCTGTGGTCATCGAACATTGGGCCGGTCGTGCCATG
modifications: W indole, X amine, Y phenol modified dU [15,19,24,27,34,35,43,46]
B18: PEP 2.06 (ssDNA)
DNA: TTTTTAACACGACCGGCCTGTGGTCAGCACAGACTGTTGTGGTCGTGCCATG
modifications: W indole, X amine, Y phenol modified dU [19,24,35,38,40,43,46]
B19: PEP 2.04 (ssDNA)
DNA: TTTTTAACACGACATGGCTGTGGTCATCACAGCGCACCATTGTCGTGCCATG
modifications: W indole, X amine, Y phenol modified dU [15,19,24,27,40,43,46]
B20: PEP 4.22 (ssDNA)
DNA: TTTTTAAGCCCACGGTGCTGTGGAAGCCACAGTACAATGGAGTGGGCCCATG
B21: PEP 4.01 (ssDNA)
DNA: TTTTTAAGCCCACAAGCGTTCGGCTCTCACAGATCGTTGACGTGGGCCCATG
B22: PEP 4.19 (ssDNA)
DNA: B21 DNA with C30T
B23: PEP 4.04 (ssDNA)
DNA: TTTTTAAGCCCACGATCCTGTGCTTCGCACAGCTCGAGCTAGTGGGCCCATG
B24: PEP 2.02 (ssDNA)
DNA: TTTTTAAGCCCACATACGTTCGATGGTCACAGATTGGGCAAGTCGTGCCATG
modifications: W indole, X amine, Y phenol modified dU [15,19,20,24,27,34,35,43,46]
B25: PEP 1.19 (ssDNA)
DNA: TTTTTAACACGACATAGCTGTGACAGGCACAGGTCATGGGAGTCGTGCCATG
modifications: W indole, X amine, Y phenol modified dU [15,19,34,43,46]
B26: PEP 4.18 (ssDNA)
DNA: TTTTTAACACGACTATTCTGTGAGTCTCGAACTGCGACAACGTGGGCCCATG
B27: PEP 4.09 (ssDNA)
DNA: TTTTTAACACGACATATGTTCGACGGACACAGTGTGTGGCGGTCGTGCCATG
B28: PEP 4.03 (ssDNA)
DNA: TTTTTAACACGACAGGGGTTCGTAGGACACAGGTTGATGTTGTGGGCCCATG
B29: PEP 1.23 (ssDNA)
DNA: TTTTTAAGCCCACTTCACTGTGGCTCGCACAGGCCGATGGGGTCGTGCCATG
modifications: W indole, X amine, Y phenol modified dU [14,15,19,25,38,43,46]
B30: PEP 2.03 (ssDNA)
DNA: TTTTTAACACGACGGTGCTGTGCTGGTCACAGCACGCGCGCGTCGTGCCATG
modifications: W indole, X amine, Y phenol modified dU [16,19,24,27,43,46]
B31: PEP 1.18 (ssDNA)
DNA: TTTTTAACACGACCACCCTGTGCAAGGCGAACTCCGTCAAAGTGGGCCCATG
modifications: W indole, X amine, Y phenol modified dU [19]
B32: PEP 4.11 (ssDNA)
DNA: TTTTTAAGCCCACCCGAGTTCGTCCAGCGAACCACGCGCGTGTCGTGCCATG
B33: PEP 1.02 (ssDNA)
DNA: TTTTTAACACGACCATCCTGTGCCTCACGAACTCATTGCCCGTCGTGCCATG
modifications: W indole, X amine, Y phenol modified dU [16,19,25,36,43,46]
B34: PEP 4.07 (ssDNA)
DNA: TTTTTAAGCCCACTCGTGTTCGCACACCGAACCACAAGCTAGTGGGCCCATG
B35: PEP 4.13 (ssDNA)
DNA: TTTTTAAGCCCACGGCCGTTCGGCCACCACAGTGTGGCAGCGTCGTGCCATG
B36: PEP 2.05 (ssDNA)
DNA: TTTTTAAGCCCACCCTACTGTGGTCACCACAGTGCAAGCCCGTCGTGCCATG
modifications: W indole, X amine, Y phenol modified dU [16,19,24,43,46]
B37: PEP 1.01 (ssDNA)
DNA: TTTTTAACACGACGCGACTGTGAGAGGCACAGTTTGGGGGCGTGGGCCCATG
modifications: W indole, X amine, Y phenol modified dU [19,34,35]
B38: PEP 4.15 (ssDNA)
DNA: B37 DNA with C15T
B39: PEP 1.22 (ssDNA)
DNA: TTTTTAACACGACTTGGGTTCGGAAGGCGAACCGCAGCAATGTGGGCCCATG
modifications: W indole, X amine, Y phenol modified dU [14,15,19,20]
B40: PEP 2.07 (ssDNA)
DNA: TTTTTAACACGACGTCGCTGTGGTCAACGAACAGATACAACGTCGTGCCATG
modifications: W indole, X amine, Y phenol modified dU [15,19,24,36,43,46]
B41: PEP 2.08 (ssDNA)
DNA: TTTTTAAGCCCACGTTTGTTCGGTGGTCACAGCACGCCACGGTCGTGCCATG
modifications: W indole, X amine, Y phenol modified dU [15,16,17,19,20,24,27,43,46]
B42: PEP 2.01 (ssDNA)
DNA: TTTTTAACACGACGTTACTGTGGTCACCACAGGATGAGCCTGTCGTGCCATG
modifications: W indole, X amine, Y phenol modified dU [15,16,19,24,35,43,46]
B43: PEP 2.17 (ssDNA)
DNA: B42 DNA with C39G
modifications: W indole, X amine, Y phenol modified dU [15,16,19,24,35,43,46]
B44: PEP 2.15 (ssDNA)
DNA: B42 DNA with C40T
modifications: W indole, X amine, Y phenol modified dU [15,16,19,24,35,40,43,46]
B45: PEP 4.02 (ssDNA)
DNA: TTTTTAAGCCCACTACTGTTCGAAGGGCACAGTCCAGGCCGGTGGGCCCATG
B46: PEP 2.14 (ssDNA)
DNA: TTTTTAAGCCCACGGGTCTGTGGTCACCGAACGACGTGGCAGTGGGCCCATG
modifications: W indole, X amine, Y phenol modified dU [17,19,24]
B47: PEP 2.16 (ssDNA)
DNA: TTTTTAAGCCCACATAGGTTCGGTGGTCACAGTGTGGTGCGGTGGGCCCATG
modifications: W indole, X amine, Y phenol modified dU [15,19,20,24,27,35,38]
B48: PEP 4.10 (ssDNA)
DNA: TTTTTAAGCCCACAAGACTGTGCGTCGCACAGATTGGCATCGTCGTGCCATG

Assays:
Assay in all cases: ELONA
[1] = molecular target: T1, SNAP25 Peptide 2 (PEP2)
Excerpt: (§1) The data in Table 2 was collected by running direct ELISA assays on the 96 X-aptamers, elucidating their ability to bind SNAP25, SNAP25 fragments (PEP1, PEP2, PEP3, and PEP4), and a negative control. The X-aptamers were biotinylated and immobilized onto streptavidin-coated plates and were utilized as detection molecules. Higher numbers represent strong binding. The negative control peptide is a random peptide to measure the amount of binding that occurs to a random amino acid sequence.

[2] = molecular target: SNAP25 Peptide 4 (PEP4, BoNT/A cleavage site region) (Homo sapiens, UniProt P60880 SEQ:1-24); settings: label: biotin
[3] = molecular target: T2, SNAP25 Peptide 1 (PEP1)
Excerpt: as §1

SNAP25 Peptide 4 (PEP4, BoNT/A cleavage site region), sequence (P60880 174-197): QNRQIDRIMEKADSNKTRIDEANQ

Binder | binding signal [1] [ELISA signal] | binding signal [2] [ELISA signal] | other results
B1 | 37 |  | 
B2 |  | 18 | 
B3 |  | 18 | 
B4 | 43 |  | 
B5 |  | 131 | 
B6 |  |  | binding signal [3]: 188 ELISA signal
B7 |  | 94 | 
B8 | 46 |  | 
B9 |  | 24 | 
B10 |  |  | binding signal [3]: 160 ELISA signal
B11 |  | 61 | 
B12 |  | 170 | 
B13 |  | 35 | 
B14 | 40 |  | 
B15 |  | 37 | 
B16 |  |  | binding signal [3]: 188 ELISA signal
B17 | 36 |  | 
B18 | 102 |  | 
B19 | 190 |  | 
B20 |  | 17 | 
B21 |  | 257 | 
B22 |  | 18 | 
B23 |  | 186 | 
B24 | 394 |  | 

Binder | binding signal [1] [ELISA signal] | binding signal [2] [ELISA signal] | other results
B25 |  |  | binding signal [3]: 200 ELISA signal
B26 |  | 18 | 
B27 |  | 85 | 
B28 |  | 202 | 
B29 |  |  | binding signal [3]: 168 ELISA signal
B30 | 221 |  | 
B31 |  |  | binding signal [3]: 200 ELISA signal
B32 |  | 67 | 
B33 |  |  | binding signal [3]: 742 ELISA signal
B34 |  | 105 | 
B35 |  | 57 | 
B36 | 159 |  | 
B37 |  |  | binding signal [3]: 2240 ELISA signal
B38 |  | 37 | 
B39 |  |  | binding signal [3]: 184 ELISA signal
B40 | 65 |  | 
B41 | 65 |  | 
B42 | 592 |  | 
B43 | 30 |  | 
B44 | 36 |  | 
B45 |  | 208 | 
B46 | 36 |  | 
B47 | 31 |  | 
B48 |  | 76 | 

From patent US20220064648, “NOVEL X-[…] FOR THE USE IN DETECTION OF SNAP25” (Galderma Holding S.A., published 2022)
